Assays:
[1] = target: I^125-αDTX-labelled VGKCs (Kv1 complexes) in digitonin-solubilised rabbit cortex extract
[2] = target: I^125-αDTX-labelled VGKCs (Kv1 complexes) in digitonin-solubilised rabbit cortex extract; remark: listed apart in the source

goat anti Lgi1 antibody (Santa Cruz C19 sc-9583 and N18 sc-9581)
percent of αDTX binding sites immunoprecipitated [1]: 61%
percent of total I^125-αDTX binding sites precipitated [2]: > 60%

— US9188587
